Experimental findings from patent EP4663661A1 (Hainan Simcere Zaiming Pharmaceutical Co., Ltd., dated 2025) are described below.

The EC50 is the concentration that produces a half-maximal response. One may read the kon as the second-order rate constant of association.

The target of experiment [1] is human CDH6 protein, full length, on cells (OVCAR3, PA-1) (human) (UniProt P55285). Description: FACS, OVCAR3 cells.
For experiment [2] the target is unchanged. As to the kind of experiment: FACS, PA-1 cells.
Experiment [3] has as its target his-tagged human CDH6 extracellular region protein (hCDH6 ECD-his) (human) (UniProt P55285). As to the kind of experiment: ELISA, antigen coated.
Experiment [4] has as its target monkey CDH6 protein (cynoCDH6 ECD-his) (monkey (cyno)). As to the kind of experiment: ELISA, antigen coated. A general note: In an ELISA, binding on a coated surface is turned into a signal by an enzyme label.
The target of experiment [5] is murine CDH6 protein (mCDH6 ECD-his) (mouse) (UniProt P97326). Description: ELISA, antigen coated.
In experiment [6] the target is human CDH6 with EC1 removed, on HEK293T cells (HEK293T-hCDH6-EC1 deletion) (human) (UniProt P55285). Description: FACS, HEK293T-hCDH6-EC1 deletion cells. (Flow cytometry measures light scatter and fluorescence of single cells or particles in a stream.)
Experiment [7] addresses human CDH6 with EC5 removed, on HEK293T cells (HEK293T-hCDH6-EC5 deletion) (human) (UniProt P55285). As to the kind of experiment: FACS, HEK293T-hCDH6-EC5 deletion cells.
The target of experiment [8] is human CDH6 with EC2 removed, on HEK293T cells (HEK293T-hCDH6-EC2 deletion) (human) (UniProt P55285). Description: FACS, HEK293T-hCDH6-EC2 deletion cells.
Experiment [9] concerns the target T1, his-tagged human CDH6 extracellular region protein (hCDH6 ECD-his) (human, UniProt P55285 54-615).
T1 construct: also called hCDH6-his; Human CDH6-his; not shown: his tag
T1 sequence: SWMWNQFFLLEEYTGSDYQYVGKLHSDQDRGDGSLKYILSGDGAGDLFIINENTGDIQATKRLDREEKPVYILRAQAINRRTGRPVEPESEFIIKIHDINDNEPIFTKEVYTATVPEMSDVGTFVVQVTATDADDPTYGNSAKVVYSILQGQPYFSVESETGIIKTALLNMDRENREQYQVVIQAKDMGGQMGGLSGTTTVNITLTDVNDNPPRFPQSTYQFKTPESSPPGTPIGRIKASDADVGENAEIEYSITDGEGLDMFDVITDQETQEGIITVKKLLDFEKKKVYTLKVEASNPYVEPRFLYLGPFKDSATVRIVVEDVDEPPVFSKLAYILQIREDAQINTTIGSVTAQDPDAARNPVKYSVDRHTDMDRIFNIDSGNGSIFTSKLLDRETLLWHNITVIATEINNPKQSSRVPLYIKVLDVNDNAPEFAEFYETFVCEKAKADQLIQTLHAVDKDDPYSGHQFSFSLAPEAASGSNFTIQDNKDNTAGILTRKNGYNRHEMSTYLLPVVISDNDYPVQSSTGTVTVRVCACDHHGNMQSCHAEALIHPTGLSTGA
As to the kind of experiment: ELISA, antigen coated.

The target of experiment [10] is human CDH6 with EC3 removed, on HEK293T cells (HEK293T-hCDH6-EC3 deletion) (human) (UniProt P55285). As to the kind of experiment: FACS, HEK293T-hCDH6-EC3 deletion cells.
In experiment [11] the target is T1, his-tagged human CDH6 extracellular …. Description: ELISA, antigen coated. The source holds these as a separate data set.
In experiment [12] the target is human CDH6 with EC4 removed, on HEK293T cells (HEK293T-hCDH6-EC4 deletion) (human) (UniProt P55285). Description: FACS, HEK293T-hCDH6-EC4 deletion cells.
The target of experiment [13] is T1, his-tagged human CDH6 extracellular …. Description: SPR Biacore, antibody captured on Protein A chip. Background: Surface plasmon resonance follows binding to a sensor surface in real time, without labels.

Where two headings read alike, the source gives them in different places.

With hIgG1 (antibody), the Max MFI in experiment [1] amounted to 63 MFI; in experiment [2], 64 MFI. For the same molecule, the Max OD450 in experiment [3] is 0.07 OD450; in experiment [4], 0.06 OD450; in experiment [5], 0.1 OD450.

B1: CHI-CDH6-14 (antibody, human IgG1, kappa, V domains shown)
VH: QIQLQQSGPELVKPGTSVKISCKASGYTFTDNYINWVRQRPGQGLEWIGWIYPGTGNSYYNEKFKGKATLTVDTSSSTAYMQFSSLTSEDSAVYLCASSYGDSFDYWGQGTTLTVSS
VL: DIQMTQTTSSLSASLGNRVTISCRASQDIRNYLNWYQQKPDGTFKLLISYTSRLHSGVPSRFSGSGSGTDYSLTVSNLEPEDIATYYCQQYSQLPWTFGGGSRLEIKR
notes: also called CHI- hCDH6-14
Regarding B1, the Max MFI in experiment [6] was found to be 7210 MFI; in [7] it was 4040 MFI; in experiment [8] it was 814 MFI; in experiment [10], 755 MFI; in experiment [12] it was 26600 MFI. Moreover, the “Max OD450” value in experiment [9] worked out at 2.5 OD450; in experiment [5] it was 2.48 OD450; in experiment [11], 2.65 OD450. In experiment [5], this molecule gave an EC50 of 49 pM.

B2: hCDH6-1-H1L1 (antibody, human IgG1, kappa, V domains shown)
VH: EVQLVQSGAEVKKPGSSVKVSCKASGYTFSNYWMHWVRQAPGQGLEWMGDIDPSHSETHYTQKFKDRVTITVDKSTSTAYMELSSLRSEDTAVYYCARGDLGRFDYWGQGTTVTVSS
VL: DIVMTQSPDSLAVSLGERATINCRASESVSIHGTHLMHWYQQKPGQPPKLLIYAASNLESGVPDRFSGSGSETDFTLTISSLQAEDVAVYYCQQSFEDPWTFGGGTKVEIKR
Molecule B2 returned a kon in experiment [13] of 2100 M⁻¹ s⁻¹.
